{"source": "the supplement of paper PMC10567573", "parents": {"B1": {"name": "NR2F2 (parent)", "chain": "NIPFFPDLQITDQVALLRLTWSEL"}}, "data": [{"variants_of": "B1", "assay": "protein stability index of a GFP-peptide fusion (GPS, HEK-293T) (PSI 1-6); higher = more stable", "conditions": "c terminus: a fixed tail appended", "values": [{"variant": "D12P", "protein stability index": 4.7}, {"variant": "D12T", "protein stability index": 2.86}, {"variant": "D12I", "protein stability index": 3.82}, {"variant": "D12C", "protein stability index": 2.46}, {"variant": "D12R", "protein stability index": 1.66}, {"variant": "D12W", "protein stability index": 3.74}, {"variant": "D12A", "protein stability index": 3.01}, {"variant": "D12S", "protein stability index": 3.57}, {"variant": "D12N", "protein stability index": 2.42}, {"variant": "D12E", "protein stability index": 3.52}, {"variant": "D7L", "protein stability index": 2.88}, {"variant": "D7Q", "protein stability index": 3.44}, {"variant": "D7W", "protein stability index": 4.12}, {"variant": "D7C", "protein stability index": 2.67}, {"variant": "D7K", "protein stability index": 2.03}, {"variant": "D7R", "protein stability index": 2.46}, {"variant": "D7S", "protein stability index": 3.27}, {"variant": "D7A", "protein stability index": 1.65}, {"variant": "S22H", "protein stability index": 2.71}, {"variant": "S22M", "protein stability index": 3.55}, {"variant": "S22P", "protein stability index": 1.82}, {"variant": "S22I", "protein stability index": 2.24}, {"variant": "S22A", "protein stability index": 2.17}, {"variant": "S22L", "protein stability index": 3.32}, {"variant": "P3W", "protein stability index": 3.62}, {"variant": "P3K", "protein stability index": 3.61}, {"variant": "P3V", "protein stability index": 3.79}, {"variant": "P3I", "protein stability index": 2.13}, {"variant": "P3E", "protein stability index": 2.12}, {"variant": "P3D", "protein stability index": 2.43}, {"variant": "L19I", "protein stability index": 2.3}, {"variant": "L19E", "protein stability index": 2.04}, {"variant": "L19R", "protein stability index": 2.08}, {"variant": "L19Q", "protein stability index": 2.07}, {"variant": "L19Y", "protein stability index": 1.85}, {"variant": "L19W", "protein stability index": 2.23}, {"variant": "Q9M", "protein stability index": 2.9}, {"variant": "Q9Y", "protein stability index": 2.88}, {"variant": "Q9I", "protein stability index": 1.92}, {"variant": "Q9V", "protein stability index": 4.4}, {"variant": "Q9C", "protein stability index": 2.34}, {"variant": "Q9E", "protein stability index": 2.15}, {"variant": "Q9R", "protein stability index": 2.36}, {"variant": "T20F", "protein stability index": 1.47}, {"variant": "T20D", "protein stability index": 1.81}, {"variant": "T20P", "protein stability index": 2.02}, {"variant": "T20S", "protein stability index": 3.1}, {"variant": "T20G", "protein stability index": 2.23}, {"variant": "T20H", "protein stability index": 2.49}, {"variant": "T20A", "protein stability index": 1.83}, {"variant": "E23T", "protein stability index": 3.56}, {"variant": "E23H", "protein stability index": 3.17}, {"variant": "E23Q", "protein stability index": 2.12}, {"variant": "E23F", "protein stability index": 3.75}, {"variant": "E23W", "protein stability index": 3.24}, {"variant": "E23G", "protein stability index": 2.17}, {"variant": "E23D", "protein stability index": 3.12}, {"variant": "E23R", "protein stability index": 2.02}, {"variant": "L16F", "protein stability index": 2.62}, {"variant": "L16N", "protein stability index": 2.03}, {"variant": "L16W", "protein stability index": 1.65}, {"variant": "L16R", "protein stability index": 1.84}, {"variant": "L16V", "protein stability index": 2.34}, {"variant": "L16E", "protein stability index": 1.63}, {"variant": "L16D", "protein stability index": 2.02}, {"variant": "L16P", "protein stability index": 1.86}, {"variant": "F4G", "protein stability index": 2.2}, {"variant": "F4Y", "protein stability index": 2.56}, {"variant": "F4A", "protein stability index": 2.34}, {"variant": "F4P", "protein stability index": 2.58}, {"variant": "F4S", "protein stability index": 2.04}, {"variant": "F4I", "protein stability index": 2.63}, {"variant": "F4D", "protein stability index": 2.44}, {"variant": "F4T", "protein stability index": 2.03}, {"variant": "P6A", "protein stability index": 2.97}, {"variant": "P6R", "protein stability index": 1.51}, {"variant": "P6F", "protein stability index": 3.43}, {"variant": "P6N", "protein stability index": 2.81}, {"variant": "P6I", "protein stability index": 3.02}, {"variant": "P6M", "protein stability index": 2.25}, {"variant": "N1K", "protein stability index": 2.26}, {"variant": "N1T", "protein stability index": 2.02}, {"variant": "N1Y", "protein stability index": 2.74}, {"variant": "N1E", "protein stability index": 2.36}, {"variant": "N1F", "protein stability index": 3.02}, {"variant": "N1H", "protein stability index": 2.44}, {"variant": "N1P", "protein stability index": 2.45}, {"variant": "L17F", "protein stability index": 1.46}, {"variant": "L17K", "protein stability index": 2.43}, {"variant": "L17A", "protein stability index": 1.49}, {"variant": "R18F", "protein stability index": 2.89}, {"variant": "R18N", "protein stability index": 2.45}, {"variant": "R18Q", "protein stability index": 2.18}, {"variant": "R18P", "protein stability index": 2.21}, {"variant": "R18G", "protein stability index": 2.25}, {"variant": "R18C", "protein stability index": 2.63}, {"variant": "R18K", "protein stability index": 2.52}, {"variant": "R18T", "protein stability index": 2.18}, {"variant": "T11M", "protein stability index": 3.1}, {"variant": "T11R", "protein stability index": 2.52}, {"variant": "T11Q", "protein stability index": 2.47}, {"variant": "T11S", "protein stability index": 2.96}, {"variant": "T11P", "protein stability index": 2.02}, {"variant": "L8S", "protein stability index": 1.82}, {"variant": "L8D", "protein stability index": 1.98}, {"variant": "L8K", "protein stability index": 2.7}, {"variant": "L8W", "protein stability index": 2.64}, {"variant": "L8I", "protein stability index": 2.92}, {"variant": "L8R", "protein stability index": 1.99}, {"variant": "L8A", "protein stability index": 2.32}, {"variant": "L8V", "protein stability index": 2.09}, {"variant": "I10C", "protein stability index": 2.15}, {"variant": "I10H", "protein stability index": 2.34}, {"variant": "I10D", "protein stability index": 1.68}, {"variant": "I10L", "protein stability index": 2.47}, {"variant": "I10Y", "protein stability index": 3.02}, {"variant": "I10V", "protein stability index": 2.68}, {"variant": "I10K", "protein stability index": 2.58}, {"variant": "I10P", "protein stability index": 2.2}, {"variant": "I10F", "protein stability index": 2.95}, {"variant": "F5L", "protein stability index": 1.56}, {"variant": "F5D", "protein stability index": 2}, {"variant": "F5A", "protein stability index": 1.98}, {"variant": "F5K", "protein stability index": 2.17}, {"variant": "F5R", "protein stability index": 2.34}, {"variant": "F5Y", "protein stability index": 2.26}, {"variant": "F5N", "protein stability index": 1.73}, {"variant": "F5T", "protein stability index": 1.49}, {"variant": "F5Q", "protein stability index": 2.13}, {"variant": "F5C", "protein stability index": 3.66}, {"variant": "V14R", "protein stability index": 1.78}, {"variant": "A15I", "protein stability index": 3.62}, {"variant": "A15W", "protein stability index": 2.03}, {"variant": "A15E", "protein stability index": 1.55}, {"variant": "A15K", "protein stability index": 1.99}, {"variant": "A15F", "protein stability index": 3.86}, {"variant": "A15M", "protein stability index": 2.71}, {"variant": "A15Q", "protein stability index": 1.9}, {"variant": "A15T", "protein stability index": 2.41}, {"variant": "A15R", "protein stability index": 2.08}, {"variant": "L24Y", "protein stability index": 1.65}, {"variant": "L24A", "protein stability index": 1.64}, {"variant": "L24P", "protein stability index": 1.88}, {"variant": "L24T", "protein stability index": 1.98}, {"variant": "L24M", "protein stability index": 2.87}, {"variant": "L24F", "protein stability index": 1.99}, {"variant": "L24V", "protein stability index": 2.22}, {"variant": "L24W", "protein stability index": 2.55}, {"variant": "W21M", "protein stability index": 2}, {"variant": "W21N", "protein stability index": 2.37}, {"variant": "W21A", "protein stability index": 2.49}, {"variant": "W21H", "protein stability index": 2}, {"variant": "W21F", "protein stability index": 2.36}, {"variant": "W21S", "protein stability index": 2.36}, {"variant": "W21T", "protein stability index": 1.79}, {"variant": "W21K", "protein stability index": 2.35}, {"variant": "W21C", "protein stability index": 1.87}, {"variant": "Q13I", "protein stability index": 4.15}, {"variant": "Q13T", "protein stability index": 3.06}, {"variant": "Q13K", "protein stability index": 2.41}, {"variant": "I2L", "protein stability index": 1.88}, {"variant": "I2D", "protein stability index": 2.85}, {"variant": "I2C", "protein stability index": 2.42}, {"variant": "I2R", "protein stability index": 1.94}, {"variant": "I2Q", "protein stability index": 1.78}, {"variant": "I2E", "protein stability index": 2.07}, {"variant": "I2K", "protein stability index": 2.25}]}]}
